Reference: the NTF2 design screens of Basanta et al. (2020)

assay: protease stability score; higher = more stable; yeast display proteolysis, trypsin and chymotrypsin;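 note: relative to predicted unfolded state with 0 unfolded-like and 1 meaning tenfold more protease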

Sequence	protease stability score
DRHDKELERFTSDWLTSWHTGDFHRILELLDPDVRYIYGDKEWHGRENVHRAIKELLERLGIDHLHLQRVEIQGEKFKIQTQVHVGDKTINLIIHILVVDGRVREVNMDEK	1.33
DEDEHFAENIIRILLHLIVTGDEDQLERLIDPHVKVTIGDKEFHGRLADEILREEIRIKRVHLRDFRIVNGRAESRFKLVGNWNGVETEFTKSVYIDKINGRWIITERHIT	1.16
DEEEERLEKLAEILIHYHLTGDFEILLEYADPNVQTEFDGVEIHGMELSNKFLEKSNKKLGVDHRHYKSYSAYGNKVTVLSEIHVNGRKMEVRFRWDVVNGKIQTLHIHFD	1.05
DHDEREYHHFVQILIHSMRTGDWVKLEELMDPHVLIRIGDKELHGREELYRFMLQARIELEVKDYRLYGDKVELDTLLSMLIGDKLSETDSRMKLEKVDGKWIIREIFVDPETKKRLLD	1.64
SEREEHDEFIMKLSLELEKTGDEHTIERLADPNPRIILEQGDKRITRHGWEHWEELLRRLGIKHIEFHRHKAINGQVHVDGTLRFDGVTVRSELVLIMVDGVMKTIKVIIR	1.44
NHEEEERHETFRIFLESVRTGDWKNTEKLLDPNARQVWNGKVLHGRESVIEVMRELRVDSLDVKSFDIQGEKAIMHGESEGVFNGKRLNMTLETHLVKVDGKWFLRELVII	1.23
SHLEEDAEKALRHLIHLFYTGDEKTLHNLADPNTRFRIGDKEYHGMEYILEFWLHIRLEDFDVERMSVQGDKIHIDSRMTLHFNGRSREIEVHILLLKYNGVWRIEEVRIH	1.24
DEDHRWLKELMELFSRALSTGNEKELTELMDPNTRIEVDGVDLIGREDWRHFLERVDHLEAKRVEIKRVKVYDGKIEMDTTEDGVIEINGQNVRTIVHSQVFVLKVDGRWIFRKMSRR	1.42
DDWHEILKHHFDNEVESILTGDEDSIKKMIDPHVRLEVNGREVHGMEEFARVMIEIRFRRIDLRERDIFNGVLHLRLEVDWEYGDKRFETEEEVVYFKVNGRWILESMRVR	1.26
TEEHELFEKLARLIIKWLHTGDEERINEYADPNYRTHIGDKTVIGREEREKLIRWLLEHMRIDHIELKDIRVINGKVEIDGKIHGQINGQEVTRHSIIYLIFVDGVIKHISIEWR	1.35
DEHEEMFTKLMRELIHIWLTGDEDILNHMADPNVLVEINGRREHGREALSRFLEKFKNVRIHLHSSTAIGEKSIIDTQININGKQIKVRVEIYMVDGKIKEIRLDIQ	1.29
DSHEETNKFFFELTTHALETGDFDFLKKLADPHVRLNIDGRDTIGMDFLLRLWRELGFKHQHLKDMKIYGNWTYLDMHLHFNGREHDIHLNFKIFNGQMESIDVHIR	1.32
DEDAHLIEHLVHLMLHATNTGDEDILKDLMDPNMKIQIGDKEFHGREEFEEMHRRADHLETTDWKLHSVDIQGDKIHLDTRVDRVIIINGKITREDTRTELDVRKIDGRWVVTRISVE	1.27
DEEERLWHEFLEEFLRYIITGNWKKIADLADPNVRYQQGEKTNIGREDFERHFEKTYNDLGVDHFEIDHVDIQGNKIEIHLWLRVNGQEHKIHIDVKVVNGRIKYVRIEYE	1.5
DESEKLVERLTEDFRKAFETGDEKRLYNLMDPNVRLDINGVEIIGRELISKDLAHDLRRFKNVKMEFRLREIRVIGNFAHIDGRDIINVDGVEKYHESNYIVHKIDGRWHIKEIIIH	1.52
DEREDEVRLATEHVERILQTGDEELFRHFVDPRVRMDYNGKDVHGREVILEWIVKIKNLTVRIDDVEVQGDKMLIRSHWTIGDKQHHLRIIATKINGRWESTSVHIH	1.02
SEIDEEIEKHFELYTHALHTGDEHVLRRLLDPDARLTVGDKTFHGREQVVKELSREIHELRVRDMEIKDEKLVGDKLHQDTRLQFKFNGKEHEIITNFIWLKVNGQWVIREVRYD	1.25
DEEDEANKQIMEHLRKVWDTGDFHTYLRLADPHMRFIVGDKIFHGREEITQLIKELLEKFGADHVELENSRESLVGDKLHLDLHTRYHFNGREIRVDVHNEVTKIDGKWHIKFLSLRIK	1.42

Sequence	protease stability score
SESHDLLEEFVRLILHLWRTGDEEILHNMADPNTQMHIGDKTYHGREEAVDVIHKLLKHLRFKHLHIDHIDIQGDWVRITGHLHVKVDGREIQREVSSVVIKINGRWILRSERID	2.27
DQEEHEFYNVLRLFMFTLMTGDEHTLKKLLDPNARIEINGQERHGREEILHHMNRNLHEIRMKTLEVKRESVYGNYAHADTRLRGEVNGRESIVTVHIYIQVINGRIEHVHLDIK	1.45
DEEHEDAVRIWEEFLEAVITGDWDRLKTLLDPNVRLHQGDFEIHGREKIVKTIHEMRIHIHDHRFRDSHFINGRVKLHVESDKEIIYGNKKTRLTVHVTVIIHKVNGVWLVHSVHVE	0.986
DELEEFLHTIMELVVRNMFTGDEDSFNNLADPDVKSHINGKNAVGREEIIRVWKEWVEEIRTTHYDIHDFTIIGDKAHSDTRVDGTFNGVRDTIDTRVIVLVVDGRLKSLEIRMH	0.986
SDEDKELEHVMKKFEDALSTGDENTLYSLLDPNVKLEIGDKEIHGMEEFVRVMKRHLHELGAKFRSITIEHWNIIGEKVRLHSKIILDFNGRDIFLNTHIVMFKFDGRWIFETFKIQ	2.23
SENHKLSREALEHFLHLVHTGDFEKIYHMLDPNVKSEAENHHDHGMRDVVHLWRTMGIDHIRVHEVRIFENHLDVDMISIVGDKHFRLNIHIRKVNGRWQTELVRVN	1.8
TEDEDYMHDATREFVTNVATGDEDRLRELMDPRTRHVYNGVRLHGRNLALEFWTHFRRELGVDHIEIRIRDLKFQGDYIHLHTEIVMDFNGVRIIYDTFVRVRKFNGQWMLQSSEIH	0.194
DEDSELAQIYNDLWRHTMETGDEHLSRRLLDPEVRLIINGREFIGWSLAIEVEHRLFKRFDHVHIDLEHITIQGDKIHTNSTLHIHFNGVTFEHRIHISIKKVNGRWINHTQRIQ	0.801
NEKEELLRKIMDMLIRHWETGDFEKLMELADPNVRLHYEQGDKEHHHHGREDVAKFIEELLRMLGVDHWHLEKIEIVGEKLHLHGRIHVNGRTIDLRIHWVVVNGVLKSVRIILG	1.14
DEDKEYLREVLEVLKHMWDTGDERELSKLADPHTRVEINGVKFIGMEEFVRIMQELTKRADHMENRVERNIYQGDYVLVRTRLILKIGEKDFEREVDIFVRKFNGRWLIEELKFH	1.37
DEREKFLEEMVEEWFRNWVTGDEDRFEELADPDVRFHIGDKDSHGREAFEELMKRMGFKYKHIELHDVHIQGDKSHIDGHVQGQVNGQERDSHVHLDLVVVNGRLRTMEVRFR	1.44
SEEEKETRKNLHEFLESIITGDEDHLVNMMDPHARIEVGDWELVGRHKFHEFASKVKNLKLHIRNTEVYGDKVHIDSEINFNGQRRDMVVHAEKINGKWILKHTRYQ	1.17
DEEEEILREFSEKWLHAFRTGDWRDIWHLMDPHVKVIIFVDGREKEIHGREEYATQLHERLEKVKGMRFRDKDMDHVNGRLVINVTVHQGDKHKEFRIIIDVVNGRVKRIEIHLH	2.06
DEDRESMLEHFRLLVEQTKTGNEESTEENIDPHVRLIFNGQEYHGRHEVARYLVEIWRRVDHVRIHLTHMEVYDGVMEIHGQYHLDFDGRHVTHEFRIIFTKVDGRWRIHELRVQ	1.38
SEDEELVERAIRWLESILQTGDEHVLEHFADPHVRVTVGDYDDHGRHAIHTVWRLMGVNHSEIKRKDIQVVNGVIYIHLDGVSRVNGRNFKLSIHVILEKIDGRWHVRTLHVDIK	1.05
DEDNEYVEYMHELIARALITGDFELWLKLMDPNTRMQIDGKEFHGREEFRKRLEHLRIDRVRYNVRHFHIIGDKLHVKSEFEIDGQIDGVDRHFSVEIRVLIWKINGRWILRDETTH	1.69
DEEEEIMRKIIEDLRHNTETGDEELMQDLMDPHARIDIDGQKLHGREYVRFLHDEFKGATWIWREVRLQGDKLDVHVEVRFDGRTLHVDIHYVIVNGRTKEIRVHWD	1.28
DENSHALEIAFRLFLEYYYTGDPDEMVELADPRTRLFVGEYDSHGREQFETLLREEFKRLGIDVQHITEWEIHVQGDKVILHVRVHEVFNGKETETEIHITMHKIDGRWLISSQKRRIV	0.626
